What all share (experiment): cell-based or functional assay
Experiment [1] concerns the target Env of HIV-1 pseudovirus 3415.v1.c1 (HIV-1).
Experiment [2] addresses MuLV envelope (negative control pseudovirus).
Experiment [3] has as its target 1054_07_TC4_1499 Env pseudovirus (HIV-1).
For experiment [4], the target named is 1012_11_TC21_3257 Env pseudovirus (HIV-1).
For experiment [5], the target named is CNE30 Env pseudovirus (HIV-1).
Experiment [6] deals with Du156.12 Env pseudovirus (HIV-1).
Experiment [7] concerns the target WEAU_d15_410_787 Env pseudovirus (HIV-1).
In experiment [8] the target is 62357_14_D3_4589 Env pseudovirus (HIV-1).
The target in experiment [9] is 263-8 Env pseudovirus (HIV-1).
Experiment [10] addresses Q842.d12 Env pseudovirus (HIV-1).
For experiment [11], the target named is CAP45.2.00.G3 Env pseudovirus (HIV-1).
In experiment [12] the target is SC05_8C11_2344 Env pseudovirus (HIV-1).
For experiment [13], the target named is Du172.17 Env pseudovirus (HIV-1).
For experiment [14], the target named is Ce2060_G9 Env pseudovirus (HIV-1).
In experiment [15] the target is ZM214M.PL15 Env pseudovirus (HIV-1).
For experiment [16], the target named is 1056_10_TA11_1826 Env pseudovirus (HIV-1).
For experiment [17], the target named is 6240_08_TA5_4622 Env pseudovirus (HIV-1).
In experiment [18] the target is Q461.e2 Env pseudovirus (HIV-1).
Experiment [19] concerns the target Ce0682_E4 Env pseudovirus (HIV-1).
In experiment [20] the target is CAAN5342.A2 Env pseudovirus (HIV-1).
Experiment [21] has as its target Q769.d22 Env pseudovirus (HIV-1).
The target of experiment [22] is Du422.1 Env pseudovirus (HIV-1).
Experiment [23] has as its target 1394C9G1(Rev-) Env pseudovirus (HIV-1).
The target in experiment [24] is Ce703010054_2A2 Env pseudovirus (HIV-1).
Experiment [25] addresses TRO.11 Env pseudovirus (HIV-1).
In experiment [26] the target is 6244_13_B5_4576 Env pseudovirus (HIV-1).
Experiment [27] has as its target PVO.4 Env pseudovirus (HIV-1).
Experiment [28] addresses THRO4156.18 Env pseudovirus (HIV-1).
The target in experiment [29] is ZM109F.PB4 Env pseudovirus (HIV-1).
The target of experiment [30] is 0260.v5.c36 Env pseudovirus (HIV-1).
In experiment [31] the target is CNE53 Env pseudovirus (HIV-1).
Experiment [32] deals with Q23.17 Env pseudovirus (HIV-1).
The target in experiment [33] is HIV-16845-2.22 Env pseudovirus (HIV-1).
In experiment [34] the target is TRJO4551.58 Env pseudovirus (HIV-1).
Experiment [35] addresses CNE19 Env pseudovirus (HIV-1).
Experiment [36] deals with 6535.3 Env pseudovirus (HIV-1).
In experiment [37] the target is 246F C1G Env pseudovirus (HIV-1).
For experiment [38], the target named is Q259.d2.17 Env pseudovirus (HIV-1).
In experiment [39] the target is Ce1176_A3 Env pseudovirus (HIV-1).
Experiment [40] deals with HIV-1 Env pseudovirus T257-31 (HIV-1).
Experiment [41] deals with HIV-1 Env pseudovirus 263-8 (HIV-1).
In experiment [42] the target is HIV-1 Env pseudovirus 3415.v1.c1 (HIV-1).
Experiment [43] concerns the target HIV-1 Env pseudovirus 928-28 (HIV-1).
For experiment [44], the target named is HIV-1 Env pseudovirus CNE8 (HIV-1).

Where only a bound is given, the exact number is not on record here.

In the case of 10-1074 (antibody), in experiment [1], the IC50 is above 50 µg/mL and the IC80 is above 50 µg/mL.
Regarding N49P9 (antibody), in experiment [2], the neutralization IC50 is above 50 µg/mL, the neutralization IC80 was above 50 µg/mL and the neutralization MPI was 13.
In experiment [2], N49P19 (antibody) registered a neutralization IC50 above 50 µg/mL, a neutralization IC80 above 50 µg/mL and a neutralization MPI of 0.
On to PGT121 (antibody), for which the IC50 stood at 0.064 µg/mL in [3]; 0.003 µg/mL in experiment [4]; 0.078 µg/mL in experiment [5]; 0.004 µg/mL in experiment [6]; 0.026 µg/mL in [7]; 2.6 µg/mL in [8]. The IC50 in experiment [9] was 0.648 µg/mL; in experiment [10], 0.005 µg/mL; in experiment [11], 1.63 µg/mL; in experiment [12] it was 0.019 µg/mL; in experiment [13] it was 0.033 µg/mL; in [14] it was above 50 µg/mL. The IC50 in experiment [15] is 0.46 µg/mL; in [16], 0.004 µg/mL; in experiment [17], 0.033 µg/mL; in [18], above 50 µg/mL; in experiment [19], above 50 µg/mL; in experiment [20] it was 0.007 µg/mL. The IC50 in experiment [21] is above 50 µg/mL; in [22] it was 0.039 µg/mL; in [23] it was 0.264 µg/mL; in experiment [24], above 50 µg/mL; in [25] it was 0.005 µg/mL; in experiment [26], 0.061 µg/mL. Besides, the IC50 in experiment [27] was 0.098 µg/mL; in experiment [28] it was above 50 µg/mL; in [29], 8.64 µg/mL; in experiment [30] it was 0.053 µg/mL; in experiment [31], 0.007 µg/mL; in [32] it was below 0.001 µg/mL. Besides, the IC50 in experiment [33] was found to be 3.97 µg/mL; in experiment [34] it was 1.31 µg/mL; in [35] it was 0.008 µg/mL; in experiment [36], 0.002 µg/mL; in experiment [37], 0.041 µg/mL; in [38], 15.4 µg/mL. In addition, the IC50 in experiment [39] worked out at 0.013 µg/mL. The IC80 is 0.304 µg/mL in [3]; 0.017 µg/mL in experiment [4]; 0.291 µg/mL in experiment [5]; 0.017 µg/mL in [6]; 0.077 µg/mL in experiment [7]; above 50 µg/mL in [8]. Moreover, the IC80 in experiment [9] was 3.96 µg/mL; in experiment [11] it was above 50 µg/mL; in [12], 0.071 µg/mL; in experiment [13], 0.257 µg/mL; in experiment [14] it was above 50 µg/mL; in experiment [15] it was 2.04 µg/mL. In addition, the IC80 in [16] was 0.081 µg/mL; in [17] it was 0.127 µg/mL; in experiment [18], above 50 µg/mL; in experiment [19], above 50 µg/mL; in experiment [20], 0.023 µg/mL; in experiment [21], above 50 µg/mL. For the same substance, the IC80 is 0.143 µg/mL in experiment [22]; 1.95 µg/mL in experiment [23]; above 50 µg/mL in experiment [24]; 0.025 µg/mL in [25]; 0.347 µg/mL in [26]; 0.343 µg/mL in experiment [27]. The IC80 was above 50 µg/mL in experiment [28]; above 50 µg/mL in experiment [29]; 0.197 µg/mL in experiment [30]; 0.024 µg/mL in experiment [31]; 0.005 µg/mL in [32]; 44.6 µg/mL in [33]. The 80% effect concentration (IC80) in experiment [34] was 37.9 µg/mL; in experiment [35], 0.105 µg/mL; in experiment [36], 0.008 µg/mL; in experiment [37], 0.14 µg/mL; in experiment [38], above 50 µg/mL; in [39], 0.035 µg/mL.
Turning to VRC01 (antibody), the IC50 (Titer in TZM.bl cells) is 2.8 µg/mL in [40], 0.2 µg/mL in experiment [41], 0.06 µg/mL in experiment [42] and 0.41 µg/mL in experiment [43]. The IC80 (Titer in TZM.bl cells) was 8.66 µg/mL in experiment [40], 0.55 µg/mL in experiment [41], 0.15 µg/mL in [42] and 1.7 µg/mL in experiment [43].
In experiment [44], VRC07 (antibody) returned an IC50 (Titer in TZM.bl cells) of 0.45 µg/mL and an IC80 (Titer in TZM.bl cells) of 1.56 µg/mL.

These data come from patent publication US20240117018A1.
